Experimental data as given in publication PMC8465315, “Molecular Umbrella as a Nanocarrier for Antifungals” (Molecules, 2021).
Entries after “also recorded” stand apart in the source; their conditions may differ. Like-named read-outs stand apart in the source and are kept apart here.

What was measured:
[1] = system: C. albicans cell-free extract; assay type: in vitro ADME, Candida albicans; settings: conjugate 150 µM, 30 °C, 0, 30, 120 min
Description: (§1) Conjugates 24a–d, containing the TML system, were tested for susceptibility to enzymatic cleavage in the model system with pig liver esterase and in cell-free extract prepared from C. albicans cells. Conjugate 35 containing the o-dithiobenzylcarbamoyl linker was tested in the model system with glutathione and in C. albicans cell-free extract.
C. albicans cells were harvested from the culture in YPD medium in the logarithmic phase of growth and washed with PBS, pH 7.4. Then, cells were suspended in a minimal amount of PBS to an optical density OD660 ≈ 1.5. A sample of 1.5 mL of the cell suspension was put into the Lysing Matrix D, 2 mL tubes containing 1.4 mm ceramic spheres (MP Biomedicals). The tubes were vortexed 5 times for 2 min intervals, with 2 min breaks for cooling in the ice/water bath. Finally, the mixtures were centrifuged (10,000× g, 4 °C, 20 min), and the supernatant was pushed through the syringe filter, 0.22 μm pore size, to remove unbroken cells. The thus-obtained cell-free extract was kept at 4 °C and used no later than 5 h after preparation.
(§2) Analysis of cleavage of the conjugates was performed in two experimental systems: (A) model system, in the presence of pig liver esterase or glutathione, reduced; (B) in C. albicans cell-free extract.
A given conjugate was dissolved in 4 mL of C. albicans cell-free extract to the initial concentration of 150 µM. Mixtures were incubated at 30 °C. Samples of 1 mL were collected at zero time, after 30 min, and after 120 min. The collected samples were immediately de-proteinized by centrifugation (4 °C, 5000× g, 10 min) in Amicon® Ultra-4 Centrifugal Filter Units, 3 kDa cutoff limit. Samples of 50 μL were collected from the filtrates and subjected to HPLC-MS analysis.
(§3) The HPLC-MS system consisted of a liquid chromatograph, a degasser, a binary pomp, an auto-sampler, and a column oven, which was combined with an MS detector with an electrospray source (AJS ESI) and quadrupole analyzer (1260 Infinity II and 6470 Triple Quad LC/MS, Agilent Technologies, Waldbronn, Germany). The ChemStation software was used to control the LC-MS system and for data processing.
(§4) Chromatographic separations were performed on an Eclipse XDB-C18 column (150 mm × 4.6 mm, 5 μm). For the separation, a gradient of mobile phase A (H2O + 0.01% HCOOH) and mobile phase B (100% methanol) was used. The gradient profile was set as follows: 0 min—95% effluent A, 8 min—70% effluent A, 11 min—50% effluent A, 12 min—95% effluent A, 17 min—95% effluent A. The flow rate was 1 mL min^−1, the column temperature was 25 °C, and the injection volume was 20 μL.
(§5) The electrospray source operated in a negative mode. The data were collected in a MS scanning mode (MS2 SCAN) with the range 150–700 (m/z).

[2] = system: Candida spp.; experiment: Antifungal in vitro activity, summary statements over the Candida strains tested; assay type: cell-based
Description: The antifungal in vitro activity of conjugates 24a–d and 35 was determined by the serial two-fold dilution method, using the 96-well microtiter plates, in two growth media, RPMI-1640 and YNB-AS, against seven yeast species from the Candida genus. The MIC50 and MIC90 values, i.e., concentrations at which cell growth was inhibited in 50% and 90%, respectively, were measured and compared to those of the intact cispentacin. The concentration values presented in Table 1 and Table 2 are expressed in mM units to allow the comparison of the compounds’ effectiveness at the molecular level. For data expressed in μg mL^−1 units, such comparison is not possible, since the molecular masses of conjugates (≈1755–2114 D range) are 14–16-fold higher than that of cispentacin (128.3 D).
Susceptibility testing was performed in two growth media: (a) RPMI-1640 w/o sodium bicarbonate, with L-glutamine + 2% glucose + 3.45% MOPS, pH adjusted to 7.0; (b) YNB-AS—Yeast Nitrogen Base w/o amino acids (contains ammonium sulfate 5 g L^−1) + 2% glucose. The in vitro growth inhibitory activity of antifungals was quantified by determination of MIC50 and MIC90 values by the serial two-fold dilution method, using the 96-well microtiter plates. Serial dilutions of cispentacin and its conjugates were prepared in the 4–0.015 mM range.
Conditions of the RPMI-1640-based assay were the same as outlined in the CLSI recommendations except for the end-point readout that was done by spectrophotometric determination of cell density at 660 nm. Turbidity in individual wells was measured with a microplate reader (Victor^3; Perkin Elmer). The 96-well microtiter plates were also used for the determination of in vitro growth inhibitory activity in YNB-AS medium. Individual wells were inoculated with 5 × 10^3 Candida cells mL^−1 from the overnight culture in YPD medium. The plates were incubated at 37 °C for 24 h, and then, turbidity was measured with a microplate reader at 660 nm, as described above for the RPMI-1640-based assay.
Values of MIC50 and MIC90 were read from the graphs of A660 vs. drug concentration and corresponded to the interpolated values of drug concentration at which A660 was 50% or 10% of that measured for the drug-free control.

[3] = system: pig liver esterase; experiment: HPLC-MS analysis of conjugate cleavage, model system with pig liver esterase; assay type: in vitro ADME; settings: pig liver esterase 5 mg mL^−1; conjugate 150 µM; 30 °C; 0, 30, 120 min
Description: as §1, §2
(§6) Mixtures containing a given conjugate at the initial concentration of 150 µM and pig liver esterase, 5 mg mL^−1 or 10 mM glutathione, reduced, in a total volume of 200 μL were incubated at 30 °C. Samples of 50 μL were collected at zero time, after 30 min, and after 120 min and subjected to HPLC-MS analysis.
as §3, §4, §5

[4] = HPLC-MS analysis of conjugate cleavage, model system with glutathione; assay type: in vitro ADME; settings: reduced, conjugate 150 µM, 30 °C, 0, 30, 120 min
Description: as §1, §2, §6, §3
Chromatographic separations were performed on an Eclipse XDB-C18 column (150 mm × 4.6 mm, 5 μm). […]

[5] = both growth media (RPMI-1640 and YNB-AS)

Row | Structure (SMILES) | cleavage / release of cispentacin or its derivative (HPLC-MS) [1] | antifungal activity ([2]; RPMI-1640 medium) | cleavage / release of cispentacin (HPLC-MS) [3] | cleavage / release of cispentacin or its derivative (HPLC-MS) ([1]; listed as 26d) | antifungal activity [2, 5] | antifungal activity ([2]; both growth media (RPMI-1640 and YNB-AS), listed as 26d) | cleavage / release of cispentacin (HPLC-MS) [4]
1 | Cc1cc(C)c(C(C)(C)CC(=O)N[C@H]2CCC[C@H]2C(=O)O)c(OC(=O)CCC(=O)N(CCCCNC(=O)CC[C@@H](C)[C@H]2CC[C@H]3[C@@H]4[C@H](OS(=O)(=O)O)C[C@@H]5C[C@H](OS(=O)(=O)O)CC[C@]5(C)[C@H]4C[C@H](OS(=O)(=O)O)[C@]23C)CCCNC(=O)CC[C@@H](C)[C@H]2CC[C@H]3[C@@H]4[C@H](OS(=O)(=O)O)C[C@@H]5C[C@H](OS(=O)(=O)O)CC[C@]5(C)[C@H]4C[C@H](OS(=O)(=O)O)[C@]23C)c1 [24b] | Neither cispentacin nor the m/z 145.1/145.2 compound was found | devoid of antifungal activity | resistant to enzymatic cleavage | – | – | – | –
2 | Cc1cc(C)c(C(C)(C)CC(=O)N[C@H]2CCC[C@H]2C(=O)O)c(OC(=O)CCCCCCC(=O)N(CCCCNC(=O)CC[C@@H](C)[C@H]2CC[C@H]3[C@@H]4[C@H](OS(=O)(=O)O)C[C@@H]5C[C@H](OS(=O)(=O)O)CC[C@]5(C)[C@H]4C[C@H](OS(=O)(=O)O)[C@]23C)CCCNC(=O)CC[C@@H](C)[C@H]2CC[C@H]3[C@@H]4[C@H](OS(=O)(=O)O)C[C@@H]5C[C@H](OS(=O)(=O)O)CC[C@]5(C)[C@H]4C[C@H](OS(=O)(=O)O)[C@]23C)c1 [24d] | the product of a possible cleavage, with RT similar to that of cispentacin but with 17 D higher MW, was formed | devoid of antifungal activity | Presence of the released cispentacin was confirmed | found cleavable in the cell-free extract | inactive in both media | not active as an antifungal | –
3 | C[C@H](CCC(=O)NCCCCN(CCCNC(=O)CC[C@@H](C)[C@H]1CC[C@H]2[C@@H]3[C@H](OS(=O)(=O)O)C[C@@H]4C[C@H](OS(=O)(=O)O)CC[C@]4(C)[C@H]3C[C@H](OS(=O)(=O)O)[C@]12C)C(=O)CCSSc1ccccc1COC(=O)N[C@H]1CCC[C@H]1C(=O)O)[C@H]1CC[C@H]2[C@@H]3[C@H](OS(=O)(=O)O)C[C@@H]4C[C@H](OS(=O)(=O)O)CC[C@]4(C)[C@H]3C[C@H](OS(=O)(=O)O)[C@]12C [compound 35] | Neither cispentacin nor the m/z 145.1/145.2 compound was found | devoid of antifungal activity | – | – | inactive in both media | – | found in the chromatogram of post-reaction mixture; also recorded: cleavage was observed
